Measurements as given in patent publication US6645728.

T1: kinase-deficient IKKα (K44M), Q60680
T1 chain: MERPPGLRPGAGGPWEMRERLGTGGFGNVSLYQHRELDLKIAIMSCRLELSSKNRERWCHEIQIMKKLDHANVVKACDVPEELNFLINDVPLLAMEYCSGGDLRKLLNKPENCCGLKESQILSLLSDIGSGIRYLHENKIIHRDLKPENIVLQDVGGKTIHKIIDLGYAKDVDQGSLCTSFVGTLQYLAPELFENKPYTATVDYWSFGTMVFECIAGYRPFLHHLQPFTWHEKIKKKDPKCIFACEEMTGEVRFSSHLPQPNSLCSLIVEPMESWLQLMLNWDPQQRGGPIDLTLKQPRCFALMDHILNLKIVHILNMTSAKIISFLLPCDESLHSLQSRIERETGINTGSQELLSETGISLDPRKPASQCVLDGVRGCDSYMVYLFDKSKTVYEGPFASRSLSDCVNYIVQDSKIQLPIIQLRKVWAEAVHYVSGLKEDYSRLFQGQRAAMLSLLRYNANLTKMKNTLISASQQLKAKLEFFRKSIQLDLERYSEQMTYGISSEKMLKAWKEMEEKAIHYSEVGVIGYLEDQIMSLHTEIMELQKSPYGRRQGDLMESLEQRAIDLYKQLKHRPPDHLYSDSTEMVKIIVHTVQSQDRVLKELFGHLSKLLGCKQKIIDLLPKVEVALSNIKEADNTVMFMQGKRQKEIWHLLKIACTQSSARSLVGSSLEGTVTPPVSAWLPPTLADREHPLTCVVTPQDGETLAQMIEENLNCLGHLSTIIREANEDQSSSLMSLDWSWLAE

T2: IKKα (as present in transfected 293 cells)
T2 sequence (O15111 1-745, species assumed, looked up): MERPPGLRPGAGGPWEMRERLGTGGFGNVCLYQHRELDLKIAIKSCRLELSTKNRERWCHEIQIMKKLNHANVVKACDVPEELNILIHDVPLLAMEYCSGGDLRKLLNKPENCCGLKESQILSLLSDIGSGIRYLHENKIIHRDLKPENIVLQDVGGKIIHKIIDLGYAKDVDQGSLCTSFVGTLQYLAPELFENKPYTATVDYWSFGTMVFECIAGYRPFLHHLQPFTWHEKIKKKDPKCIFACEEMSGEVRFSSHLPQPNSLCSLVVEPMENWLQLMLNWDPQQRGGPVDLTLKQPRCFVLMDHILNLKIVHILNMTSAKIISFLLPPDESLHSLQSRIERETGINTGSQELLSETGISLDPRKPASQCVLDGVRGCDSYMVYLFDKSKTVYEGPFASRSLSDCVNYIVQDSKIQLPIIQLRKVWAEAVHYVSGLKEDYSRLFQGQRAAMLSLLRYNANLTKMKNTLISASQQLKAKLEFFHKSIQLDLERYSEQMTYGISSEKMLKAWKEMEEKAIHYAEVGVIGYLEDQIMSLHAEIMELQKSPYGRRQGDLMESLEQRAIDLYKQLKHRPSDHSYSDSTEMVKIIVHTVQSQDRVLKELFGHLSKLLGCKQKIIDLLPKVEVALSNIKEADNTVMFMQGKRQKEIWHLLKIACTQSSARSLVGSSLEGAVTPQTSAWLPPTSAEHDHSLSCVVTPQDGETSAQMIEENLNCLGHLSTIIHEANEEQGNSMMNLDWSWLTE


Key:
[1] = target: T1, kinase-deficient IKKα (K44M), Q60680
[2] = target: T2, IKKα (as present in transfected 293 …)

Protein	phosphorylation of coimmunoprecipitated IKKα (K44M) in immunocomplex kinase reaction [1]	IKKα activity (in vitro kinase reaction on GST-IκBα (1-62)) [2]
Myc-NIK (protein) MAVMEMACPGAPGSAVGQQKELPKPKEKTPPLGKKQSSVYKLEAVEKSPVFCGKWEILNDVITKGTAKEGSEAGPAAISIIAQAECENSQEFSPTFSERIFIAGSKQYSQSESLDQIPNNVAHATEGKMARVCWKGKRRSKARKKRKKKSSKSLAHAGVALAKPLPRTPEQESCTIPVQEDESPLGAPYVRNTPQFTKPLKEPGLGQLCFKQLGEGLRPALPRSELHKLISPLQCLNHVWKLHHPQDGGPLPLPTHPFPYSRLPHPFPFHPLQPWKPHPLESFLGKLACVDSQKPLPDPHLSKLACVDSPKPLPGPHLEPSCLSRGAHEKFSVEEYLVHALQGSVSSSQAHSLTSLAKTWAARGSRSREPSPKTEDNEGVLLTEKLKPVDYEYREEVHWATHQLRLGRGSFGEVHRMEDKQTGFQCAVKKVRLEVFRAEELMACAGLTSPRIVPLYGAVREGPWVNIFMELLEGGSLGQLVKEQGCLPEDRALYYLGQALEGLEYLHSRRILHGDVKADNVLLSSDGSHAALCDFGHAVCLQPDGLGKSLLTGDYIPGTETHMAPEVVLGRSCDAKVDVWSSCCMMLHMLNGCHPWTQFFRGPLCLKIASEPPPVREIPPSCAPLTAQAIQEGLRKEPIHRVSAAELGGKVNRALQQVGGLKSPWRGEYKEPRHPPPNQANYHQTLHAQPRELSPRAPGPRPAEETTGRAPKLQPPLPPEPPEPNKSPPLTLSKEESGMWEPLPLSSLEPAPARNPSSPERKATVPEQELQQLEIELFLNSLSQPFSLEEQEQILSCLSIDSLSLSDDSEKNPSKASQSSRDTLSSGVHSWSSQAEARSSSWNMVLARGRPTDTPSYFNGVKVQIQSLNGEHLHIREFHRVKVGDIATGISSQIPAAAFSLVTKDGQPVRYDMEVPDSGIDLQCTLAPDGSFAWSWRVKHGQLENRP	wild-type NIK and mutant NIK-S549A and NIK-T552A effectively phosphorylated the coimmunoprecipitated IKKα (K44M) protein in vitro	–
NIK-S549A (protein) MAVMEMACPGAPGSAVGQQKELPKPKEKTPPLGKKQSSVYKLEAVEKSPVFCGKWEILNDVITKGTAKEGSEAGPAAISIIAQAECENSQEFSPTFSERIFIAGSKQYSQSESLDQIPNNVAHATEGKMARVCWKGKRRSKARKKRKKKSSKSLAHAGVALAKPLPRTPEQESCTIPVQEDESPLGAPYVRNTPQFTKPLKEPGLGQLCFKQLGEGLRPALPRSELHKLISPLQCLNHVWKLHHPQDGGPLPLPTHPFPYSRLPHPFPFHPLQPWKPHPLESFLGKLACVDSQKPLPDPHLSKLACVDSPKPLPGPHLEPSCLSRGAHEKFSVEEYLVHALQGSVSSSQAHSLTSLAKTWAARGSRSREPSPKTEDNEGVLLTEKLKPVDYEYREEVHWATHQLRLGRGSFGEVHRMEDKQTGFQCAVKKVRLEVFRAEELMACAGLTSPRIVPLYGAVREGPWVNIFMELLEGGSLGQLVKEQGCLPEDRALYYLGQALEGLEYLHSRRILHGDVKADNVLLSSDGSHAALCDFGHAVCLQPDGLGKALLTGDYIPGTETHMAPEVVLGRSCDAKVDVWSSCCMMLHMLNGCHPWTQFFRGPLCLKIASEPPPVREIPPSCAPLTAQAIQEGLRKEPIHRVSAAELGGKVNRALQQVGGLKSPWRGEYKEPRHPPPNQANYHQTLHAQPRELSPRAPGPRPAEETTGRAPKLQPPLPPEPPEPNKSPPLTLSKEESGMWEPLPLSSLEPAPARNPSSPERKATVPEQELQQLEIELFLNSLSQPFSLEEQEQILSCLSIDSLSLSDDSEKNPSKASQSSRDTLSSGVHSWSSQAEARSSSWNMVLARGRPTDTPSYFNGVKVQIQSLNGEHLHIREFHRVKVGDIATGISSQIPAAAFSLVTKDGQPVRYDMEVPDSGIDLQCTLAPDGSFAWSWRVKHGQLENRP	wild-type NIK and mutant NIK-S549A and NIK-T552A effectively phosphorylated the coimmunoprecipitated IKKα (K44M) protein in vitro	–
NIK-T559A (protein) MAVMEMACPGAPGSAVGQQKELPKPKEKTPPLGKKQSSVYKLEAVEKSPVFCGKWEILNDVITKGTAKEGSEAGPAAISIIAQAECENSQEFSPTFSERIFIAGSKQYSQSESLDQIPNNVAHATEGKMARVCWKGKRRSKARKKRKKKSSKSLAHAGVALAKPLPRTPEQESCTIPVQEDESPLGAPYVRNTPQFTKPLKEPGLGQLCFKQLGEGLRPALPRSELHKLISPLQCLNHVWKLHHPQDGGPLPLPTHPFPYSRLPHPFPFHPLQPWKPHPLESFLGKLACVDSQKPLPDPHLSKLACVDSPKPLPGPHLEPSCLSRGAHEKFSVEEYLVHALQGSVSSSQAHSLTSLAKTWAARGSRSREPSPKTEDNEGVLLTEKLKPVDYEYREEVHWATHQLRLGRGSFGEVHRMEDKQTGFQCAVKKVRLEVFRAEELMACAGLTSPRIVPLYGAVREGPWVNIFMELLEGGSLGQLVKEQGCLPEDRALYYLGQALEGLEYLHSRRILHGDVKADNVLLSSDGSHAALCDFGHAVCLQPDGLGKSLLTGDYIPGAETHMAPEVVLGRSCDAKVDVWSSCCMMLHMLNGCHPWTQFFRGPLCLKIASEPPPVREIPPSCAPLTAQAIQEGLRKEPIHRVSAAELGGKVNRALQQVGGLKSPWRGEYKEPRHPPPNQANYHQTLHAQPRELSPRAPGPRPAEETTGRAPKLQPPLPPEPPEPNKSPPLTLSKEESGMWEPLPLSSLEPAPARNPSSPERKATVPEQELQQLEIELFLNSLSQPFSLEEQEQILSCLSIDSLSLSDDSEKNPSKASQSSRDTLSSGVHSWSSQAEARSSSWNMVLARGRPTDTPSYFNGVKVQIQSLNGEHLHIREFHRVKVGDIATGISSQIPAAAFSLVTKDGQPVRYDMEVPDSGIDLQCTLAPDGSFAWSWRVKHGQLENRP	failed to phosphorylate the coprecipitating IKKα	the mutant NIK-T559A failed to induce IKKα activity
NIK-T552A (protein) MAVMEMACPGAPGSAVGQQKELPKPKEKTPPLGKKQSSVYKLEAVEKSPVFCGKWEILNDVITKGTAKEGSEAGPAAISIIAQAECENSQEFSPTFSERIFIAGSKQYSQSESLDQIPNNVAHATEGKMARVCWKGKRRSKARKKRKKKSSKSLAHAGVALAKPLPRTPEQESCTIPVQEDESPLGAPYVRNTPQFTKPLKEPGLGQLCFKQLGEGLRPALPRSELHKLISPLQCLNHVWKLHHPQDGGPLPLPTHPFPYSRLPHPFPFHPLQPWKPHPLESFLGKLACVDSQKPLPDPHLSKLACVDSPKPLPGPHLEPSCLSRGAHEKFSVEEYLVHALQGSVSSSQAHSLTSLAKTWAARGSRSREPSPKTEDNEGVLLTEKLKPVDYEYREEVHWATHQLRLGRGSFGEVHRMEDKQTGFQCAVKKVRLEVFRAEELMACAGLTSPRIVPLYGAVREGPWVNIFMELLEGGSLGQLVKEQGCLPEDRALYYLGQALEGLEYLHSRRILHGDVKADNVLLSSDGSHAALCDFGHAVCLQPDGLGKSLLAGDYIPGTETHMAPEVVLGRSCDAKVDVWSSCCMMLHMLNGCHPWTQFFRGPLCLKIASEPPPVREIPPSCAPLTAQAIQEGLRKEPIHRVSAAELGGKVNRALQQVGGLKSPWRGEYKEPRHPPPNQANYHQTLHAQPRELSPRAPGPRPAEETTGRAPKLQPPLPPEPPEPNKSPPLTLSKEESGMWEPLPLSSLEPAPARNPSSPERKATVPEQELQQLEIELFLNSLSQPFSLEEQEQILSCLSIDSLSLSDDSEKNPSKASQSSRDTLSSGVHSWSSQAEARSSSWNMVLARGRPTDTPSYFNGVKVQIQSLNGEHLHIREFHRVKVGDIATGISSQIPAAAFSLVTKDGQPVRYDMEVPDSGIDLQCTLAPDGSFAWSWRVKHGQLENRP	wild-type NIK and mutant NIK-S549A and NIK-T552A effectively phosphorylated the coimmunoprecipitated IKKα (K44M) protein in vitro	–
